Data from PMC3338420.
pKd: −log10 of the molar value.

Experiments:
[1] = molecular target: SNX18 (Homo sapiens) (UniProt Q96RF0); conditions: cited from earlier work
[2] = molecular target: Rab6a/RPRdel complex (Rab6a with RUN1-PLAT-RUN2 of DENND5A, loop 813–835 deleted) (human | mouse) (UniProt P20340); assay: SPR; Biacore X-100, 293 K; Rab6/RPRdel or Rab6/RPdel amine-coupled to a CM5 chip (about 2,500 RU); SNX1 fragments as analytes, 0.2 to 40 µM; 100 mM NaCl, 1 mM DTT, 0.005% P20, 10 mM HEPES pH 8.0; multi-cycle; equilibrium KD from a 1:1 model
Chain of UniProt P20340 (P20340 8-195 Q72L, chain 1 of 2): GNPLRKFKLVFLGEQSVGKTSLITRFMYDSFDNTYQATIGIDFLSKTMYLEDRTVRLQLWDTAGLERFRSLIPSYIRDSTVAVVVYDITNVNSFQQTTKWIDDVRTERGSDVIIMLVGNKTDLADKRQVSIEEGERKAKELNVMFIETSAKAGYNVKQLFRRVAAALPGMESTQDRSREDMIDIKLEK
Chain of UniProt P20340 (Q6PAL8 other isoform, or with tags, fused parts or gaps, chain 2 of 2, further chain): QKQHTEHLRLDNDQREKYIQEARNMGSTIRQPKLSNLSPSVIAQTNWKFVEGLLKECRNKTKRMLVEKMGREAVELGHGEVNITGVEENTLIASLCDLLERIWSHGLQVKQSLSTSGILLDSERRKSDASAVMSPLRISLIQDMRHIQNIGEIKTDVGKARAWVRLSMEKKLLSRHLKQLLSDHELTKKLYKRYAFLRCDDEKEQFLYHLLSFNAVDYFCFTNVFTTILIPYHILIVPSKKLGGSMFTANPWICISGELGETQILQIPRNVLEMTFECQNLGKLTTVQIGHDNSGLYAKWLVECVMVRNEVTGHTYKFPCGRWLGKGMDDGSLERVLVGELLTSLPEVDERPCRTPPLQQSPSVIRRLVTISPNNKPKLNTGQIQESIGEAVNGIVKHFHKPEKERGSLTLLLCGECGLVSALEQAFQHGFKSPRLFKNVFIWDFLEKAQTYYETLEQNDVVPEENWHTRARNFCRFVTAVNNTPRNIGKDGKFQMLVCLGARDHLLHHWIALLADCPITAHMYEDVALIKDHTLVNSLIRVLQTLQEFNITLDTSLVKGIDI

Chain of UniProt Q96RF0 (Q96RF0 whole entry, the tested form may be a part): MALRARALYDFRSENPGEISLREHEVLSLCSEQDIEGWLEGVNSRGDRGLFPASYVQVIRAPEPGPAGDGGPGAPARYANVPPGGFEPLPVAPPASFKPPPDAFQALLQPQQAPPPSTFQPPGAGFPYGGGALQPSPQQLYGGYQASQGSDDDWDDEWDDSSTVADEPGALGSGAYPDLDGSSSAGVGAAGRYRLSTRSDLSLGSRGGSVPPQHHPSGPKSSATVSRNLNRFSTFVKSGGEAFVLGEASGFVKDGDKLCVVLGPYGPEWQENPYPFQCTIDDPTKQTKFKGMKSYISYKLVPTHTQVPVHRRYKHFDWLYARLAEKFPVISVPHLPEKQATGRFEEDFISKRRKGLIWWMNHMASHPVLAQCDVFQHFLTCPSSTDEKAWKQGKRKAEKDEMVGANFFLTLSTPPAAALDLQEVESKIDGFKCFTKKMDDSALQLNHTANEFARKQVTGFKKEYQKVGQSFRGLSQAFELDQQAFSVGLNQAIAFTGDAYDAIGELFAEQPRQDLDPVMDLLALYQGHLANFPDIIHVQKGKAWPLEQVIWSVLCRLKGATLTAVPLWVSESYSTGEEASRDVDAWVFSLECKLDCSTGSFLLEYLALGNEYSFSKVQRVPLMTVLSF

Row | Substance | pKd [1] | pKd [2]
1 | FIP5 (from UniProt Q9BXF6) | 5.80 | 
2 | SNX1 SNX-PX (9–303) (from UniProt Q9WV80 9-303) (domain or fragment) |  | 5.77
